# Earlier results as cited in article PMC4303274.
# Like-named read-outs stand apart in the source and are kept apart here.
# Tests used:
# CaMKII (Homo sapiens) [1] = target: CaMKII (Homo sapiens) (UniProt Q9UQM7)
# [2] = target: neurogranin (Homo sapiens) (UniProt Q92686)
# CaMKII (Homo sapiens) [3] = target: CaMKII (Homo sapiens) (UniProt Q9UQM7); remark: listed apart in the source
# Sequence of CaMKII (Homo sapiens) (Q9UQM7 whole entry): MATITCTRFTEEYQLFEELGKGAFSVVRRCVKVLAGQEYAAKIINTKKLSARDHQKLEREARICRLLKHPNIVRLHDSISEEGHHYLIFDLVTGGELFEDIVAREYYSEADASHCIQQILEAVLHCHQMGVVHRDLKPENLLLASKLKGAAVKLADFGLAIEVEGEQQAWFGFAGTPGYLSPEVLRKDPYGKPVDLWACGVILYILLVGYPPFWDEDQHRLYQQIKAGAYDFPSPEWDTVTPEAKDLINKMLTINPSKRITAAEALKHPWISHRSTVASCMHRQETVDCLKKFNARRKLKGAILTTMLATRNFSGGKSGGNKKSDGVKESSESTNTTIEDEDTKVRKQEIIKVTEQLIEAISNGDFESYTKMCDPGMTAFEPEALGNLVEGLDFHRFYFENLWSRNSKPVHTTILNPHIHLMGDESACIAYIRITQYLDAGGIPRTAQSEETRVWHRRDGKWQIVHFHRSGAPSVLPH
# Sequence of neurogranin (Homo sapiens) (Q92686 whole entry): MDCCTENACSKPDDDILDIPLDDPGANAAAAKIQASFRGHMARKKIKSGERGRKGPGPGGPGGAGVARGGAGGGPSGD
Kd (CaMKII (Homo sapiens) [1]),Kd [2],Kd (CaMKII (Homo sapiens) [3]),Substance
950 nM,1050 nM,,calmodulin C-lobe fragment TR2C (R state) TR2C (from UniProt P0DP23)
,,88000 nM,calmodulin C-lobe fragment TR2C (T state) TR2C (from UniProt P0DP23)
